# Data from US20190225675A1 (TUFTS UNIVERSITY, published 2019).
# B1: VNA-TcdB (toxin B-binding heterodimer, 5D+E3) (other)
# chain: QGVQSQLQLVESGGGLVQPGGSLRLSCEASGFTLDYYGIGWFRQPPGKEREAVSYISASARTILYADSVKGRFTISRDNAKNAVYLQMNSLKREDTAVYYCARRRFSASSVNRWLADDYDVWGRGTQVAVSSEPKTPKPQGGGGSGGGGSGGGGSQGVQSQVQLVESGGGLVQTGGSLRLSCASSGSIAGFETVTWSRQAPGKSLQWVASMTKTNNEIYSDSVKGRFIISRDNAKNTVYLQMNSLKPEDTGVYFCKGPELRGQGIQVTVSSEPKTPKPQ
# Key:
# [1] = target: Clostridium difficile toxin B (TcdB) (Clostridium difficile, UniProt P18177 2-2366)
# [2] = target: T1, Clostridium difficile toxin A (TcdA) (Clostridium difficile, UniProt P16154 1-2710); assay: ELISA on plates coated with TcdA, HRP-conjugated detection antibody, A450
# T1 construct: mature
# T1 sequence (P16154 whole entry): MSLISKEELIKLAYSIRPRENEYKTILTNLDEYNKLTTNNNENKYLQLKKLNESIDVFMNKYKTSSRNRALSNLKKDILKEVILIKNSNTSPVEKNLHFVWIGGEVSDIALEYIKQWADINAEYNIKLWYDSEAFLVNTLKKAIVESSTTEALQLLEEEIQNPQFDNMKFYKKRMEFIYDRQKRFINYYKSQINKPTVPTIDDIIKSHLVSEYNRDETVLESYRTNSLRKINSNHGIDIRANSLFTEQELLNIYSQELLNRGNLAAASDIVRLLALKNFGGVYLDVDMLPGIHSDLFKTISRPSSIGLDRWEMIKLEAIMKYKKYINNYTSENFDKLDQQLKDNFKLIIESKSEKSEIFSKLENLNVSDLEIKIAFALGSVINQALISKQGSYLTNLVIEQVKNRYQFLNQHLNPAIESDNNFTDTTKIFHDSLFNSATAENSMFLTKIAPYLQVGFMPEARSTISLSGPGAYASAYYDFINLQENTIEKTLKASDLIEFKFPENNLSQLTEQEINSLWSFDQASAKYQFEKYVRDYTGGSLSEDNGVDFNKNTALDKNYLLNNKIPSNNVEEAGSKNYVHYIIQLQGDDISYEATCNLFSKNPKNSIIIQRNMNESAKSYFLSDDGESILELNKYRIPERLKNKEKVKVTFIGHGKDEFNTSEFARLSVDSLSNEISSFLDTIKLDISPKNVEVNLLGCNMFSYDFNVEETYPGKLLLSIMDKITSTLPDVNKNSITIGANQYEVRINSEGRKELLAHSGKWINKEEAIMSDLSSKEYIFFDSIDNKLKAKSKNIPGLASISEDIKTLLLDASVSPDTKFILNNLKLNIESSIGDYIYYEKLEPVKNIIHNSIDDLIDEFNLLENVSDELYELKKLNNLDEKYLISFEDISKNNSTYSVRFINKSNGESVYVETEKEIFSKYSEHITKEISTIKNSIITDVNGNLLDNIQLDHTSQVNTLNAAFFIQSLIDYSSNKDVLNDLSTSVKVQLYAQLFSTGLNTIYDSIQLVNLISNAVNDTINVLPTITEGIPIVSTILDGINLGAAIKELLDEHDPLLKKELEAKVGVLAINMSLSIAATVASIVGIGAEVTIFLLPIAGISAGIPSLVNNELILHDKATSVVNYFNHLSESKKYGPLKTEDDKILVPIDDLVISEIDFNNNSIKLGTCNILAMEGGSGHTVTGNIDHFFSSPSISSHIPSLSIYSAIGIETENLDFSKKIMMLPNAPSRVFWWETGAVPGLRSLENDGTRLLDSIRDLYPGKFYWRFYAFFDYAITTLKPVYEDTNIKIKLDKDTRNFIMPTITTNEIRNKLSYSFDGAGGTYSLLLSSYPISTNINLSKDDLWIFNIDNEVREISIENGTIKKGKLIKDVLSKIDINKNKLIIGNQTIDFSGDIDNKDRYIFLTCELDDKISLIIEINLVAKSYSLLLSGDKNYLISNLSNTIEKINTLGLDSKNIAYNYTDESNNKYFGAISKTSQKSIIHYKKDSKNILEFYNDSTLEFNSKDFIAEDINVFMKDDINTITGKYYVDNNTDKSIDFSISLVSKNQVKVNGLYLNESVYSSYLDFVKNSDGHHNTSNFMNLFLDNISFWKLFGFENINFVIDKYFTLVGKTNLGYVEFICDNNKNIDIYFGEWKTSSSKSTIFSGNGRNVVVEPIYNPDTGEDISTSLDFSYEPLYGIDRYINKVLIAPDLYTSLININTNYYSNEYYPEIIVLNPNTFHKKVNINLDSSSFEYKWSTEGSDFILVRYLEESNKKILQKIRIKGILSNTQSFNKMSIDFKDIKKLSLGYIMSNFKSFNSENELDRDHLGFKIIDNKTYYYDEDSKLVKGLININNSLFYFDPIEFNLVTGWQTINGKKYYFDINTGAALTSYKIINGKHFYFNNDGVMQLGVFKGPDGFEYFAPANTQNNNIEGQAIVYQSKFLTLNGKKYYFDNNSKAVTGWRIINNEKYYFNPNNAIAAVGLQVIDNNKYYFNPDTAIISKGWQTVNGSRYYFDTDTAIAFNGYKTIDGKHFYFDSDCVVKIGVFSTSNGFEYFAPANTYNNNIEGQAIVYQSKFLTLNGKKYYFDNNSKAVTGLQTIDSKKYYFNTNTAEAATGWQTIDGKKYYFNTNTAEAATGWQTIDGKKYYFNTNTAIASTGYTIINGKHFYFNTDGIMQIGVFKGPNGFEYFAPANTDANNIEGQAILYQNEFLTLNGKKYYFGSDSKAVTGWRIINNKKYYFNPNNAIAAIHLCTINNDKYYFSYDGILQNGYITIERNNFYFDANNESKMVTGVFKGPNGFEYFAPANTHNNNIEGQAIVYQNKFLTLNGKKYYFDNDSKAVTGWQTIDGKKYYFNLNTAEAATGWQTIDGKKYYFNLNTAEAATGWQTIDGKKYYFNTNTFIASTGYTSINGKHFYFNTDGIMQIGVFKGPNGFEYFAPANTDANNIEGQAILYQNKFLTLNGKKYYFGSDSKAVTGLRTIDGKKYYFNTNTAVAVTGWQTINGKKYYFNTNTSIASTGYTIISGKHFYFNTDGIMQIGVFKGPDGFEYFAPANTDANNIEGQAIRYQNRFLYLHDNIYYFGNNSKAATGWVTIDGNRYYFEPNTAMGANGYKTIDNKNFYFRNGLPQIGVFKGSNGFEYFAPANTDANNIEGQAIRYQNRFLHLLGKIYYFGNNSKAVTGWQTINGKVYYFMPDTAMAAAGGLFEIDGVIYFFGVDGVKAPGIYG
# Sequence of Clostridium difficile toxin B (TcdB) (P18177 2-2366): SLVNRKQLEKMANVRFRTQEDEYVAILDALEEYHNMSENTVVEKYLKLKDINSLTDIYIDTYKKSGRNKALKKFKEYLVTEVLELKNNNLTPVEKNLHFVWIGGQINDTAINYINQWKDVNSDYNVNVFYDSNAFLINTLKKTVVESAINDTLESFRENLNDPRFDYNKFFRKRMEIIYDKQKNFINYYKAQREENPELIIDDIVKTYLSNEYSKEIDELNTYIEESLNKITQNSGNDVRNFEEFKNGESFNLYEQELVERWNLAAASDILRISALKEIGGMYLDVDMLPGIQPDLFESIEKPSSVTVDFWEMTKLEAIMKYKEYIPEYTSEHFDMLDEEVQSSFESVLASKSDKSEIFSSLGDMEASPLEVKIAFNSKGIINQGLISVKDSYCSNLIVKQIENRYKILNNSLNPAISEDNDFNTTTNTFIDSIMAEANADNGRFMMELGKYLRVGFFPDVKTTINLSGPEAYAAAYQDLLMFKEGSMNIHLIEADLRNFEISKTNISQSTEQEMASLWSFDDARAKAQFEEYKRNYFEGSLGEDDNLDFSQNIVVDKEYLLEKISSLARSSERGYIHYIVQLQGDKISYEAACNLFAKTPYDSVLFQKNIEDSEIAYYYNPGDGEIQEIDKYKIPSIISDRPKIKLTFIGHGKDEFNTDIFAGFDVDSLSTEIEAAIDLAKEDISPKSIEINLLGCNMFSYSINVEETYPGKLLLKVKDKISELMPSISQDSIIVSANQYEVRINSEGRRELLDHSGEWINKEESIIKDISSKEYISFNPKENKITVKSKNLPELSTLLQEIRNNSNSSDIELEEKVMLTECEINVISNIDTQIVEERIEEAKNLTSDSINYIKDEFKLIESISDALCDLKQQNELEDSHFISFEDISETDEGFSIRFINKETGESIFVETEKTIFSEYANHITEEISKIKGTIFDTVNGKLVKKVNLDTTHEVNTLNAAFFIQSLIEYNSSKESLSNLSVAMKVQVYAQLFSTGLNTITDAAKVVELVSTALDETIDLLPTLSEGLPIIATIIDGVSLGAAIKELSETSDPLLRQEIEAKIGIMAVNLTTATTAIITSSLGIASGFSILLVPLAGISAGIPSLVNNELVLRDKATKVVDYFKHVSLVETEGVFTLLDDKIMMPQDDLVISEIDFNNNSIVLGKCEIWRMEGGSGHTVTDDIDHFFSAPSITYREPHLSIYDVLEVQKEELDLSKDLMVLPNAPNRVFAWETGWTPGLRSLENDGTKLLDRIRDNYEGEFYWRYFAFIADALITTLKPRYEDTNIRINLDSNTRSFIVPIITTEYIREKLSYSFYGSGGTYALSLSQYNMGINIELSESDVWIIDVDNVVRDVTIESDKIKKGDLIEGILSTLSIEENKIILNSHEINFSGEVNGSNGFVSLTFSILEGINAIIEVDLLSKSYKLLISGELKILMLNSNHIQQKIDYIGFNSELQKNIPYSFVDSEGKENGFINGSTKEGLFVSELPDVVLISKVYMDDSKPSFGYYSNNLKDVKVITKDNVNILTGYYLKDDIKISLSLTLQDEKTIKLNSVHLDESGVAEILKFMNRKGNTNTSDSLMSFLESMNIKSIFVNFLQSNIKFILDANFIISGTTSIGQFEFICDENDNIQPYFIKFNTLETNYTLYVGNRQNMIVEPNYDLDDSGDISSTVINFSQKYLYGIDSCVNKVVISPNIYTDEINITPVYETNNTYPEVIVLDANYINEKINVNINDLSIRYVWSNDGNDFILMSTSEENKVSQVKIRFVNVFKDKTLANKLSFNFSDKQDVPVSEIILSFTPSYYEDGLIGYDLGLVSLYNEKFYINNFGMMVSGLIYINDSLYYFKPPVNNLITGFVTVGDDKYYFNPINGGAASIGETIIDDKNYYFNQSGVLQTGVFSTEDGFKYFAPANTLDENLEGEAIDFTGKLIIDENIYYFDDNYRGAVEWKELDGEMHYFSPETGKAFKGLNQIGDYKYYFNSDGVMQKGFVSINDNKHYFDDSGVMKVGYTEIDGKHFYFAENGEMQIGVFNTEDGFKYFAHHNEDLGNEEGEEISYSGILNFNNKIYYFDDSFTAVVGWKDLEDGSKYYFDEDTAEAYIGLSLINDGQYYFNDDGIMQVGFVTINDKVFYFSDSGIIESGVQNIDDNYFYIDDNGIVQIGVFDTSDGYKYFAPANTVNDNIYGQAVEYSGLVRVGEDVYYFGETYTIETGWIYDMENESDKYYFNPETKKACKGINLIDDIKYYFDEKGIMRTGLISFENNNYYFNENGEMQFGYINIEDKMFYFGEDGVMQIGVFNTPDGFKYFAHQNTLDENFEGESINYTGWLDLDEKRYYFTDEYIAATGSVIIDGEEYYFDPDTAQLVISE
binder,measurement,setting,value
B1,EC50 (read off the curve),[1],~0.3 nM
same,binding result,[2],no binding (tested: 125 nM)
